Measured values taken from article PMC6151396, “Production of Single-Chain Fv Antibodies Specific for GA-Pyridine, an Advanced Glycation End-Product (AGE), with Reduced Inter-Domain Motion” (Molecules : A Journal of Synthetic Chemistry and Natural …, 2017).

Columns and labels:
[1] = target: T1, glycolaldehyde (GA)-modified bovine serum albumin (Bos taurus, UniProt P02769, modified by glycolaldehyde (GA-pyridine forms on the ε-amino group of Lys residues); sites not given); assay: ELISA; phage ELISA: GA-BSA coated on a 96-well plate, scFv display phage clones added for 1 h at 25 °C, detected with HRP-conjugated anti-M13 antibody; details: one partner purified
T1 construct: bovine serum albumin; The scFvs are directed against GA-pyridine, a modified lysine; also called GA-BSA; source: BSA (25 mg/mL) incubated with 50 mM glycolaldehyde at 37 °C for 12 h, dialysed with PBS
T1 sequence (P02769 25-607): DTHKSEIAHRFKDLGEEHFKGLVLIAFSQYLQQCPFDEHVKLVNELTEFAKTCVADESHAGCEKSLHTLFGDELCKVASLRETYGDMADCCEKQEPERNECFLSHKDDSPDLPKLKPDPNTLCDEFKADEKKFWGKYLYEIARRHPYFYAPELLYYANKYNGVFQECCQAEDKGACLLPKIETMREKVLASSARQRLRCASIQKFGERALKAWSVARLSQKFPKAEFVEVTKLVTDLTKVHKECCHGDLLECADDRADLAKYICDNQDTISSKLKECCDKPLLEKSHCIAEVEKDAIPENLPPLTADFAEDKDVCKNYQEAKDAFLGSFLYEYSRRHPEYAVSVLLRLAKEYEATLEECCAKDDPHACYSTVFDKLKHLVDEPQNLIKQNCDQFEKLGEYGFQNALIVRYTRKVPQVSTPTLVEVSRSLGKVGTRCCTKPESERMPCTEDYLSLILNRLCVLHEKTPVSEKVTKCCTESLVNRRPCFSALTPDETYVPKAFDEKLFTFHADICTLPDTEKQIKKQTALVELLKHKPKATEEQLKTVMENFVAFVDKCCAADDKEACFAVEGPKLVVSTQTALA

[2] = target: T2, glucose-derived AGE-modified BSA (Bos taurus, UniProt P02769, glucose-derived AGE modification; sites not given); assay: ELISA; competitive ELISA of purified AGE73scFv with AGE-modified BSAs as competitors; coated antigen and conditions not told in the text shown (Figure S2); details: both partners purified
T2 construct: bovine serum albumin; also called Glc-BSA
T2 sequence (P02769 25-607): as above

[3] = target: T1, glycolaldehyde (GA)-modified bovine …; assay: as above; details: both partners purified
[4] = target: T3, glyceraldehyde-modified BSA (Bos taurus, UniProt P02769, modified by glyceraldehyde; sites not given); assay: as above; details: both partners purified
T3 construct: bovine serum albumin; also called GCA-BSA
T3 sequence (P02769 25-607): as above

Binder | binding result [1] | further results
AGE73scFv displayed on phage (scFv, V domains shown, VH of AGE73scFv; as the VH of m1; (Gly-Gly-Gly-Gly-Ser)3 linker; VL of AGE73scFv; as the VL of m1) VH: QVKLQQSGPSLVKPSQTLSLTCSVTGDSITSGYWNWIRKFPGNKFEYLGYISYSGRTYYNPSLKSRISITRDTSKNQYYLQLNSVTTEDTATYYCSRPYYRYDYAIDYWGQGTTVTVSS VL: DIELTQSPAIMSASLGERVTMTCTASSSVSSSYLHWYQQKPGSSPKLWIYSTSNLASGVPARFSSSGSGTSYSLTISRMEAEDAATYYCQQSRKVPYTFGGGTKLEIK | binds | –
73MuL-S30P displayed on phage (scFv, V domains shown, as the VH of m1 (AGE73scFv); (Gly-Gly-Gly-Gly-Ser)3 linker; as the VL of m1 (AGE73scFv); source: second library, error-prone PCR of the VL of AGE73scFv) VH: QVKLQQSGPSLVKPSQTLSLTCSVTGDSITSGYWNWIRKFPGNKFEYLGYISYSGRTYYNPSLKSRISITRDTSKNQYYLQLNSVTTEDTATYYCSRPYYRYDYAIDYWGQGTTVTVSS VL: DIELTQSPAIMSASLGERVTMTCTASSSVSPSYLHWYQQKPGSSPKLWIYSTSNLASGVPARFSSSGSGTSYSLTISRMEAEDAATYYCQQSRKVPYTFGGGTKLEIK | binds | –
73MuL-S56P displayed on phage (scFv, V domains shown, as the VH of m1 (AGE73scFv); (Gly-Gly-Gly-Gly-Ser)3 linker; as the VL of m1 (AGE73scFv); probably Kabat; source: second library, error-prone PCR of the VL of AGE73scFv) VH: QVKLQQSGPSLVKPSQTLSLTCSVTGDSITSGYWNWIRKFPGNKFEYLGYISYSGRTYYNPSLKSRISITRDTSKNQYYLQLNSVTTEDTATYYCSRPYYRYDYAIDYWGQGTTVTVSS VL: DIELTQSPAIMSASLGERVTMTCTASSSVSSSYLHWYQQKPGSSPKLWIYSTSNLAPGVPARFSSSGSGTSYSLTISRMEAEDAATYYCQQSRKVPYTFGGGTKLEIK | binds | –
AGE112scFv displayed on phage (scFv, V domains shown, VH of AGE112scFv; (Gly-Gly-Gly-Gly-Ser)3 linker; VL of AGE112scFv) VH: QVKLQESGPSLVKPSQTLSLTCSVTGDSITSGYWNWIRKFPGNKFEYLGYISYSGRTYYNPSLKSRISITRDTSKNQYYLQLNSVTTEDTATYYCSRPYYRYDYAIDYWGQGTTVTVSS VL: DIELTQSPTTMAASPGEKITITCSASSSISSNYLHWYQQKPGFSPKLLIYSTSNLASGVPARFSGSGSGTSYSLTISSMEAEDAATYYCQQWSSNPYTFGGGTKLEIK | binds | –
73MuL-V94A displayed on phage (scFv, V domains shown, as the VH of m1 (AGE73scFv); (Gly-Gly-Gly-Gly-Ser)3 linker; as the VL of m1 (AGE73scFv) with V94A; probably Kabat; source: second library, error-prone PCR of the VL of AGE73scFv) VH: QVKLQQSGPSLVKPSQTLSLTCSVTGDSITSGYWNWIRKFPGNKFEYLGYISYSGRTYYNPSLKSRISITRDTSKNQYYLQLNSVTTEDTATYYCSRPYYRYDYAIDYWGQGTTVTVSS VL: DIELTQSPAIMSASLGERVTMTCTASSSVSSSYLHWYQQKPGSSPKLWIYSTSNLASGVPARFSSSGSGTSYSLTISRMEAEDAATYYCQQSRKAPYTFGGGTKLEIK | binds | –
AGE78scFv displayed on phage (scFv, V domains shown, VH of AGE78scFv; (Gly-Gly-Gly-Gly-Ser)3 linker; VL of AGE78scFv) VH: QVKLQESGPSLVKPSQTLSLTCSVTGDSITSGYWNWIRKFPGNKFEYLGYISYSGRTYYNPSLKSRISITRDTSKNQYYLHLNSVTTEDTATYYCTRPYHRYDYAIDFWGQGTTVTVSS VL: DIELTQSPAIMSASPGEKVTMTCSASSSVSYMHWYQQKPGFSPKLLIYRTSNLASGVPARFSGSGSGTSYSLTIGTMEAEDVATYYCQQGSSIPYTFGGGTKLEIK | binds | –
AGE73scFv (scFv, V domains shown, VH of AGE73scFv, from the GA-KLH immunised mouse antibody library; (Gly-Gly-Gly-Gly-Ser)3 linker; VL of AGE73scFv, from the GA-KLH immunised mouse antibody library; the FLAG-tag lies on the N-terminal side of the hexahistidine-tag, so both are probably C-terminal of the scFv; also called anti-GA-pyridine scFv) VH: QVKLQQSGPSLVKPSQTLSLTCSVTGDSITSGYWNWIRKFPGNKFEYLGYISYSGRTYYNPSLKSRISITRDTSKNQYYLQLNSVTTEDTATYYCSRPYYRYDYAIDYWGQGTTVTVSS VL: DIELTQSPAIMSASLGERVTMTCTASSSVSSSYLHWYQQKPGSSPKLWIYSTSNLASGVPARFSSSGSGTSYSLTISRMEAEDAATYYCQQSRKVPYTFGGGTKLEIK | – | binding result [2]: binds; binding result [3]: binds; binding result [4]: binds
